# Measured values taken from patent US20130309248A1.
# What was measured:
# [1] = molecular target: full-length recombinant H1 HA (A/New Caledonia/20/1999) on PER.C6 cells (influenza A virus (H1N1)); test: FACS, IgG 5 µg/ml, HA-expressing PER.C6 cells; untransfected MFI 4
# [2] = molecular target: full-length recombinant H7 HA (A/Netherlands/219/2003) on PER.C6 cells (influenza A virus (H7N7)); test: as above
# [3] = molecular target: full-length recombinant H3 HA (A/Wisconsin/67/2005) on PER.C6 cells (influenza A virus (H3N2)); test: as above
# [4] = molecular target: recombinant H3 HA (A/Wisconsin/67/2005) (influenza A virus (H3N2)); test: BLI (Octet RED), biotinylated HA on streptavidin sensor, 1:1 model
# [5] = molecular target: H3 HA antigen (A/Brisbane/10/2007) (influenza A virus (H3)); test: as above
Substance,MFI [1],MFI [2],MFI [3],Kd [4],koff [4],kon [4],Kd [5],koff [5],kon [5]
CR8020 (antibody),3 MFI,140 MFI,657 MFI,,,,,,
Fab fragment of CR8020,,,,11.2 nM,0.00208 s⁻¹,203000 M⁻¹ s⁻¹,8.9 nM,0.00143 s⁻¹,181000 M⁻¹ s⁻¹
CR8043 (antibody),4 MFI,11 MFI,646 MFI,,,,,,
Fab fragment of CR8043,,,,0.3 nM,9.86e-05 s⁻¹,408000 M⁻¹ s⁻¹,0.3 nM,8.69e-05 s⁻¹,312000 M⁻¹ s⁻¹
